Test results published in paper PMC3481545.

Target: Activin (UniProt P08476)
Assay: SPR

Binder	Kd
human recombinant BMPR-II ECD, wild type (domain or fragment) ASQNQERLCAFKDPYQQDLGIGESRISHENGTILCSKGSTCYGLWEKSKGDINLVKQGCWSHIGDPQECHYEECVVTTTPPSIQNGTYRFCCCSTDLCNVNFTENFPPPDTTPLSPPHSFNRDET	26 µM
BMPR-II ECD S107P (domain or fragment) ASQNQERLCAFKDPYQQDLGIGESRISHENGTILCSKGSTCYGLWEKSKGDINLVKQGCWSHIGDPQECHYEECVVTTTPPPIQNGTYRFCCCSTDLCNVNFTENFPPPDTTPLSPPHSFNRDET	23 µM
BMPR-II ECD Y40P (domain or fragment) ASQNQERLCAFKDPPQQDLGIGESRISHENGTILCSKGSTCYGLWEKSKGDINLVKQGCWSHIGDPQECHYEECVVTTTPPSIQNGTYRFCCCSTDLCNVNFTENFPPPDTTPLSPPHSFNRDET	70 µM
BMPR-II ECD Y40R (domain or fragment) ASQNQERLCAFKDPRQQDLGIGESRISHENGTILCSKGSTCYGLWEKSKGDINLVKQGCWSHIGDPQECHYEECVVTTTPPSIQNGTYRFCCCSTDLCNVNFTENFPPPDTTPLSPPHSFNRDET	46 µM
BMPR-II ECD Y40Q (domain or fragment) ASQNQERLCAFKDPQQQDLGIGESRISHENGTILCSKGSTCYGLWEKSKGDINLVKQGCWSHIGDPQECHYEECVVTTTPPSIQNGTYRFCCCSTDLCNVNFTENFPPPDTTPLSPPHSFNRDET	35 µM
BMPR-II ECD Y40G (domain or fragment) ASQNQERLCAFKDPGQQDLGIGESRISHENGTILCSKGSTCYGLWEKSKGDINLVKQGCWSHIGDPQECHYEECVVTTTPPSIQNGTYRFCCCSTDLCNVNFTENFPPPDTTPLSPPHSFNRDET	54 µM
BMPR-II ECD G47N (domain or fragment) ASQNQERLCAFKDPYQQDLGINESRISHENGTILCSKGSTCYGLWEKSKGDINLVKQGCWSHIGDPQECHYEECVVTTTPPSIQNGTYRFCCCSTDLCNVNFTENFPPPDTTPLSPPHSFNRDET	30 µM
